Reference: the supplement of paper PMC10567573
± gives the standard deviation.

Experiment: protein stability index of a GFP-peptide fusion (GPS, HEK-293T) (PSI 1-6); higher = more stable
[1] = treatment: DMSO, c terminus: a fixed tail appended
[2] = treatment: MLN4924 1 uM, 8 h, c terminus: a fixed tail appended
[3] = treatment: DMSO, c terminus: native
[4] = treatment: MLN4924 1 uM, 8 h, c terminus: native
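Note: 24-mer peptide tiles fused after GFP, lentivirally expressed, FACS-sorted into six equal bins by GFP/DsRed ratio, decoded by Illumina sequencing, PSI is the read-weighted mean bin number.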

Sequence	protein stability index [1]	protein stability index [2]	protein stability index [3]	protein stability index [4]
EPDALDDSLTSLQWLQEFSILNAK [FOXJ1]	3.75 ± 0.21	3.65 ± 0.11	–	–
WLPYLYTLQGLYLVYHPVQLSTPH [DHCR7]	3 ± 0.25	2.91 ± 0.34	–	–
QLQSLCRGLGLGGRRLKSPQAPDP [FANCE]	3.02 ± 1	3.16 ± 0.74	–	–
RTSLQYGIMCLKRLNYDRKELEKR [PPFIA4]	2.88 ± 0.45	2.83 ± 0.29	–	–
VKQKISPYFKSNDVVCKNQDELRN [FAN1]	3.84 ± 0.24	3.64 ± 0.44	–	–
LTPKGGVRTSYQPSSPGRFTKETT [TRIM29]	4.17 ± 0.16	4.21 ± 0.11	–	–
IATGPFVAFGIEADDESLLRTSNG [DNAAF3]	3.9 ± 0.16	4.01 ± 0.22	–	–
HQQNKIKDLQKEQKTLQVKCQHYK [CEP70]	4.11 ± 0.28	4.6 ± 0.21	–	–
YGALSSNLQPPASLQTGNHSNGPT [NOL4L]	4.39 ± 0.22	4.44 ± 0.18	–	–
MERPQPDSMPQDLSEALKEATKEV [HMOX1]	5.44 ± 0.25	5.43 ± 0.22	–	–
ENWVCLSCYQVYCGRYINGHMLQH [HDAC6]	2.33 ± 0.76	2.54 ± 0.46	–	–
IHTGKKPHVCSLCGKAFYKKYRLT [ZNF649]	2.67 ± 0.42	2.92 ± 0.62	–	–
KLEKSIDSYYRLVIHRALDREQVS [PCDHGA10]	2.55 ± 1	2.48 ± 0.84	–	–
PLLLSHTLQELLARDTVQVELIPE [SNX8]	2.71 ± 0.23	2.73 ± 0.31	–	–
MGKLLQQPNTYADFEFLAFWQTQY [PKD2L1]	2.21 ± 0.56	2.27 ± 0.23	–	–
TRDYAPPSRGHAYRDYGHSRRDES [RBMY1A1]	4.54 ± 0.4	4.61 ± 0.42	–	–
LEDSTMGSVADTVARVLRGCLENM [PLK2]	2.79 ± 0.32	2.96 ± 0.38	–	–
VSASRDKTLRVWDLKDDGNMMKVL [WSB1]	3.2 ± 0.09	3.35 ± 0.25	–	–
DLLHNVSQNIAAETRAEDPPWFEG [DFFB]	3.753 ± 0.011	3.85 ± 0.13	–	–
MAVAFLSAQRSKDPNSQVGACIVN [DCTD]	2.01 ± 0.16	2.27 ± 0.25	–	–
IPSWQIRTVKLIRYVSNWDFFIVG [PKD2L1]	2.79 ± 0.52	2.93 ± 0.7	–	–
ANGTVIAEFILLGLLEAPGLQPVV [OR3A1]	3.06 ± 0.61	2.7 ± 0.35	–	–
GPSLPSKRESPGVGGGSGDEASAA [ZBTB22]	5.5 ± 0.34	5.64 ± 0.48	–	–

Sequence	protein stability index [1]	protein stability index [2]	protein stability index [3]	protein stability index [4]
RDPPRPGPSRPAEKPPRPEAKSAQ [GCH1]	5.33 ± 0.35	5.1 ± 0.045	–	–
LLPYFYIIYMAILLTHRCLRDEHR [DHCR7]	3.25 ± 0.52	3.05 ± 0.2	–	–
SCSSEDNLSLVCLPRSEDDDCDDD [DRICH1]	5.59 ± 0.17	5.66 ± 0.15	–	–
GKTWKQICDKHWTAKNSRVVCGMF [LOXL2]	2.06 ± 0.46	2.18 ± 0.46	–	–
PSSQLMPVKKQLQGASWELQSLRP [ZNF396]	3.66 ± 0.34	3.78 ± 0.25	–	–
RWSPAQEESFRQMVVIHKEIPTGK [ZNF232]	3.87 ± 0.42	3.99 ± 0.17	–	–
KEGDCAPEEKIWEELSVLEVFEGR [MAGEA6]	4.96 ± 0.16	4.87 ± 0.47	–	–
GGWNFSTQKFTDMVATANNRQTFV [CHIT1]	2.55 ± 0.29	2.81 ± 0.31	–	–
VSLLENNIYVHDLLTFQQITTVSK [VPS39]	2.97 ± 0.35	2.41 ± 0.49	–	–
LFILSTLVVDYIDEGRLVLEFSLL [SOAT1]	3.28 ± 0.57	2.88 ± 0.96	–	–
RSQHARKETEFLRLKRTRLGLDDF [STK38L]	2.95 ± 0.28	3.04 ± 0.44	–	–
RMLSKENKILQVFWEEHKASLGRE [CBY2]	2.96 ± 0.39	3.35 ± 0.074	–	–
LHTAREFSEEDEEETTSQDWGTPR [RTN2]	5.4 ± 0.27	5.46 ± 0.23	–	–
LGGRALMNCLPSNRTLWRLDLAGN [LRRC45]	2.5 ± 0.41	2.32 ± 0.28	–	–
NSDMQILTASGDGTCALWDVESGQ [GNB5]	4.81 ± 0.085	4.61 ± 0.36	–	–
MFRNHLCLVFELLSYNLYDLLRNT [DYRK1B]	2.54 ± 0.23	2.85 ± 0.72	–	–
NITRLQLETEIEALKEELLFMKKN [KRT18]	2.82 ± 0.091	3.05 ± 0.51	–	–
HTRSLNSIIHQMEKFSSSLHELSS [FBF1]	2.97 ± 0.21	3.06 ± 0.48	–	–
CRGIPRGPVRPAIPPPLSSVYAWG [NEK8]	2.3 ± 0.36	2.35 ± 0.43	–	–
RQRLQDISSLPLPQSLKNYLQYQ [SPSB4]	–	–	3.65 ± 0.074	3.65 ± 0.31
PECTRCGHGIVGTIVKARDKLYHP [PDLIM4]	2.35 ± 0.13	2.56 ± 0.21	–	–
KIQLRLAGQKRKHSEGRVEVYYDG [LOXL2]	3.09 ± 0.33	3.88 ± 0.67	–	–
LAPVPTHSTVSELSRSPVATATSC [DUSP5]	4.24 ± 0.3	4.17 ± 0.15	–	–

Sequence	protein stability index [1]	protein stability index [2]	protein stability index [3]	protein stability index [4]
RLVYKFGKNSSGWKEEEVLQSRN [ELF3]	–	–	2.76 ± 0.35	3.21 ± 0.85
DYKDRSVFGVPLTVNVQRTGQPLP [DLC1]	3.62 ± 0.069	3.52 ± 0.17	–	–
EQASAFQEQEIDGKSLLLMTRNDV [SAMD13]	4.74 ± 0.12	4.78 ± 0.14	–	–
VGHNHTYNMAPSALDSADLPPPSA [NFE2L1]	4.61 ± 0.16	4.43 ± 0.36	–	–
FPWIDAIMTQLRQEGWIHHLARHA [CRY1]	2.5 ± 0.46	2.96 ± 0.8	–	–
FSVRPGTEATISIREDEVHRLGSP [SCNN1D]	4.16 ± 0.16	4.2 ± 0.12	–	–
TMAAKKNRQSSDKQNGRVAKVKGH [C18orf25]	4.53 ± 0.25	4.58 ± 0.29	–	–
MSHAAEPARDGVEASAEGPRAVFV [TFE3]	4.62 ± 0.13	4.86 ± 0.09	–	–
RPQGPQLRQQQHKQNKQVLGYCLL [DNAJC4]	2.52 ± 0.22	2.38 ± 0.23	–	–
QSRANGVKYPELVLEHSLDREEEA [PCDHGA10]	5.29 ± 0.12	5.31 ± 0.15	–	–
AAKPAASITSKPATLTTTSATSKL [ZNF207]	4.6 ± 0.12	4.6 ± 0.17	–	–
EKYKTQIDHYVGIARDQTKSIVEK [RTN3]	4.07 ± 0.2	4.15 ± 0.31	–	–
YLIMIFLGLYINFRHLYKQRRRRY [HACD3]	2.55 ± 0.86	2.53 ± 0.63	–	–
PGKETLESALIALDSEKPKKLRFH [EHMT1]	4.06 ± 0.24	4.11 ± 0.45	–	–
CPAELFTNTRSDLDVFGRGDNISD [LUC7L3]	4.38 ± 0.26	4.65 ± 0.19	–	–
SSSSSSSSSSSASSSASSSFSEEG [NFE2L1]	5.43 ± 0.33	5.38 ± 0.23	–	–
QGEMDRKCKQVKEKCKEEFVEEIK [ZMYND11]	4.91 ± 0.32	5.43 ± 0.24	–	–
PPLRLWRSVIEVPAVPEEILKRLL [DLC1]	2.26 ± 0.46	2.43 ± 0.18	–	–
ECHIVVLTDDDVVDWDEEYPPQMG [BTBD10]	3.34 ± 0.29	3.73 ± 0.42	–	–
KFENLCKLMKEILDKKVEKVTISN [HSP90AB1]	–	2.75 ± 0.38	–	–
GHRLAQKLQGLENWGQDPGVSANA [PBXIP1]	3.82 ± 0.2	3.87 ± 0.3	–	–
SDLLDEKEIAKNLIQPINHTTLQC [FEM1C]	3.83 ± 0.25	4.03 ± 0.39	–	–
EPGYIDSEIGTSDQIVPEYQEDSD [TRIB1]	5.69 ± 0.29	5.62 ± 0.19	–	–

Sequence	protein stability index [1]	protein stability index [2]	protein stability index [3]	protein stability index [4]
TEDELRVRHLEEENRGIVVLGINR [AUH]	4.29 ± 0.15	4.33 ± 0.39	–	–
DIYILPSDNSGQVSPPESPTVTTS [BCL2L13]	4.58 ± 0.27	4.5 ± 0.15	–	–
MAPKTKKGCKVTLPEKPVKLASHT [FBF1]	4.16 ± 0.15	4.21 ± 0.087	–	–
QGITMGCWDMYRHDIDCQWVDITD [LOXL2]	2.4 ± 0.55	2.73 ± 0.42	–	–
FYNTEDIKDWEDRFYLLLFSFLGL [PTGFR]	2.41 ± 0.7	2.1 ± 0.47	–	–
PISVHCSAGVGRTGVFITLSIVLE [PTPRD]	2.96 ± 0.26	2.6 ± 0.21	–	–
RLLLAESGLSFITFICYVASSASA [CMTM3]	2.53 ± 0.94	2.43 ± 0.77	–	–
HAAHVVCRELGYVEAKSWTASSSY [LOXL2]	2.31 ± 0.29	2.28 ± 0.17	–	–
YAVENEHMNRLQSQRAMLLQGTES [VTI1B]	3.94 ± 0.31	4.1 ± 0.2	–	–
IMAFFLCLGLALGAVFSFLFRAIV [SLC29A1]	1.94 ± 0.14	2.19 ± 0.21	–	–
SALPFITYLENKGHRYPCFFNTLH [POP5]	2.34 ± 0.46	2.19 ± 0.42	–	–
VLADLHSAEQLKAQAIDFINRCSV [SPOPL]	2.15 ± 0.14	2.29 ± 0.39	–	–
EQVAQLKQKVMTHVSNGCQLLLGV [JUNB]	2.33 ± 0.27	2.12 ± 0.13	–	–
MHPGRTTGKGPSTHTQIDQQPPRL [M1AP]	4.45 ± 0.1	4.511 ± 0.026	–	–
GRGAFGEVRLVQKKDTGHIYAMKI [STK38L]	2.09 ± 0.25	2.43 ± 0.49	–	–
MDAAPGVDLSRILNEMRDQYEKMA [KRT17]	3.82 ± 0.18	3.8 ± 0.17	–	–
QEAAERESKLLRDLSAANEKNLLL [LRRC45]	4.37 ± 0.14	4.19 ± 0.13	–	–
CYKGHKEIAQYLLEKGADVNRKSV [FEM1C]	3.1 ± 0.14	3.38 ± 0.18	–	–
TFLKAFPLMGETQERERVLTHFSR [PSD2]	2.45 ± 0.21	2.63 ± 0.39	–	–
MMYSAELWRYRTITFSGRPSRVHA [FBXO39]	2.23 ± 0.091	2.46 ± 0.2	–	–
